In the supplement of paper PMC9112550, “Optimization of the antimicrobial peptide Bac7 by deep mutational scanning” (BMC Biology, 2022):

Tested on: Escherichia coli TOP10
Assay: shrunken log2 fold change of peptide-encoding DNA abundance (4.5 h post-induction vs induction); higher = less antimicrobial activity (less host growth inhibition)
Conditions: time post-induction: 4.5 h; library: site-saturation at positions 5, 18, 19, 20
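Further: peptides expressed intracellularly from a pBAD plasmid library in pooled LB shake-flask culture, induced with 0.3% L-arabinose, DNA abundance read by NGS, three biological replicates, DESeq2 with apeglm shrinkage.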

| Sequence | shrunken log2 fold change |
| --- | --- |
| RRIRWRPPRLPRPRPRPPDEPRP | 0.654 |
| RRIRDRPPRLPRPRPRPNEWPRP | -0.00174 |
| RRIRDRPPRLPRPRPRPTWSPRP | 0.235 |
| RRIRFRPPRLPRPRPRPNNGPRP | -0.151 |
| RRIRVRPPRLPRPRPRPFNTPRP | 2.64 |
| RRIRVRPPRLPRPRPRPAEVPRP | 0.00588 |
| RRIRERPPRLPRPRPRPNAQPRP | 0.138 |
| RRIRTRPPRLPRPRPRPNELPRP | -0.0115 |
| RRIRARPPRLPRPRPRPWPIPRP | 0.179 |
| RRIRCRPPRLPRPRPRPLFIPRP | -0.51 |
| RRIRTRPPRLPRPRPRPNIAPRP | -0.239 |
| RRIRIRPPRLPRPRPRPIGNPRP | -0.104 |
| RRIRCRPPRLPRPRPRPWNNPRP | -0.107 |
| RRIRKRPPRLPRPRPRPDELPRP | 2.45 |
| RRIRPRPPRLPRPRPRPKVTPRP | 0.0845 |
| RRIRVRPPRLPRPRPRPCDPPRP | -0.107 |
| RRIRIRPPRLPRPRPRPTCGPRP | -0.0476 |
| RRIRGRPPRLPRPRPRPYEIPRP | -0.132 |
| RRIRQRPPRLPRPRPRPNLGPRP | 0.0673 |
| RRIRMRPPRLPRPRPRPLPEPRP | 1.24 |

| Sequence | shrunken log2 fold change |
| --- | --- |
| RRIRVRPPRLPRPRPRPGTYPRP | -0.166 |
| RRIRHRPPRLPRPRPRPWMGPRP | -0.205 |
| RRIRKRPPRLPRPRPRPRYGPRP | -0.238 |
| RRIRFRPPRLPRPRPRPIWQPRP | -0.146 |
| RRIRFRPPRLPRPRPRPSPSPRP | 0.12 |
| RRIRPRPPRLPRPRPRPASLPRP | 0.187 |
| RRIRTRPPRLPRPRPRPEPDPRP | 0.286 |
| RRIRGRPPRLPRPRPRPTLAPRP | 1.27 |
| RRIRNRPPRLPRPRPRPRNEPRP | 0.121 |
| RRIRWRPPRLPRPRPRPHYTPRP | -0.638 |
| RRIRGRPPRLPRPRPRPPMIPRP | -0.0528 |
| RRIRRRPPRLPRPRPRPLIIPRP | -0.376 |
| RRIRPRPPRLPRPRPRPRSGPRP | 0.0638 |
| RRIRHRPPRLPRPRPRPAWEPRP | 0.421 |
| RRIRARPPRLPRPRPRPMSSPRP | 0.0476 |
| RRIRNRPPRLPRPRPRPAREPRP | 0.191 |
| RRIRLRPPRLPRPRPRPFDPPRP | -0.352 |
| RRIRHRPPRLPRPRPRPPKNPRP | -0.0129 |
| RRIRGRPPRLPRPRPRPVVWPRP | 1.26 |
| RRIRYRPPRLPRPRPRPRMSPRP | 0.256 |

| Sequence | shrunken log2 fold change |
| --- | --- |
| RRIRKRPPRLPRPRPRPTTYPRP | 0.00371 |
| RRIRVRPPRLPRPRPRPCPTPRP | -0.17 |
| RRIRMRPPRLPRPRPRPNSLPRP | -0.0986 |
| RRIRYRPPRLPRPRPRPYPMPRP | -0.744 |
| RRIRVRPPRLPRPRPRPYNQPRP | -0.844 |
| RRIRSRPPRLPRPRPRPDVMPRP | -0.0117 |
| RRIRDRPPRLPRPRPRPAEGPRP | 0.015 |
| RRIRFRPPRLPRPRPRPWWFPRP | -0.395 |
| RRIRKRPPRLPRPRPRPYRVPRP | -0.0373 |
| RRIRWRPPRLPRPRPRPSNCPRP | -0.0121 |
| RRIRNRPPRLPRPRPRPQKTPRP | -0.0033 |
| RRIRVRPPRLPRPRPRPIMQPRP | -0.149 |
| RRIRLRPPRLPRPRPRPLLDPRP | 0.3 |
| RRIRTRPPRLPRPRPRPGFDPRP | -0.164 |
| RRIRCRPPRLPRPRPRPFALPRP | -0.33 |
| RRIRIRPPRLPRPRPRPLSIPRP | -0.493 |
| RRIRKRPPRLPRPRPRPHLRPRP | -0.0961 |
| RRIRQRPPRLPRPRPRPFFGPRP | 6.44e-05 |
| RRIRTRPPRLPRPRPRPHKFPRP | -0.18 |
| RRIRSRPPRLPRPRPRPAVWPRP | 0.765 |
